Measured values published in patent US20240083986A1 (published 2024).
Changes are numbered by the printed parent chain. Numbers in names are those of the source. Values belong to the binder of their own block, whether it stands above or below them.

Assays:
natural Bet v 1 [1] = target: T1, natural Bet v 1 (Betula verrucosa (Betula pendula), UniProt P15494 2-160); assay: blocking ELISA, biotin nBet v 1 to captured IgE, donor 23035-BL
T1 construct: bought natural protein (Indoor Biotechnologies #NA-BV1-1); also called nBet v 1; Biotinylated Bet v 1
T1 chain: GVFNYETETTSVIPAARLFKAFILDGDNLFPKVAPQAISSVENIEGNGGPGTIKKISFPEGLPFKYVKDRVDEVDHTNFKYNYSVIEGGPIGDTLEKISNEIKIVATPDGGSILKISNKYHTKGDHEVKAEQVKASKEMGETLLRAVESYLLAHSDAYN

natural Bet v 1 [2] = target: T1, natural Bet v 1; assay: blocking ELISA, biotin nBet v 1 to captured IgE, donor 25299-RJ
natural Bet v 1 [3] = target: T1, natural Bet v 1; assay: blocking ELISA, biotin nBet v 1 to captured IgE, donor 23939-MH
natural Bet v 1 [4] = target: T1, natural Bet v 1; assay: dose-response blocking ELISA, biotin nBet v 1 to captured IgE, donor 25609-MS
natural Bet v 1 [5] = target: T1, natural Bet v 1; assay: blocking ELISA, biotin nBet v 1 to captured IgE, donor 25414-CW
natural Bet v 1 [6] = target: T1, natural Bet v 1; assay: dose-response blocking ELISA, biotin nBet v 1 to captured IgE, donor 25340-RR
natural Bet v 1 [7] = target: T1, natural Bet v 1; assay: blocking ELISA, biotin nBet v 1 to captured IgE, donor 25609-MS
natural Bet v 1 [8] = target: T1, natural Bet v 1; assay: dose-response blocking ELISA, biotin nBet v 1 to captured IgE, donor 23939-MH
natural Bet v 1 [9] = target: T1, natural Bet v 1; assay: blocking ELISA, biotin nBet v 1 to captured IgE, donor 25340-RR
natural Bet v 1 [10] = target: T1, natural Bet v 1; assay: blocking ELISA, biotin nBet v 1 to captured IgE, donor 29718-MW
natural Bet v 1 [11] = target: T1, natural Bet v 1; assay: blocking ELISA, biotin nBet v 1 to captured IgE, donor 26532-CC
[12] = target: T2, Celery (Api g 1, MyBiosource, Cat #MBS1171376) (Celery, UniProt P49372 1-154, limits assumed); assay: SPR Biacore, 25C;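 also: binding of related allergens to purified monoclonal anti-Bet v 1 antibodies by surface plasmon resonance in HEPES-buffered saline pH 7.4, kinetics fitted to a 1:1 model with mass transport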
T2 construct: Bought reagent
T2 sequence (looked up): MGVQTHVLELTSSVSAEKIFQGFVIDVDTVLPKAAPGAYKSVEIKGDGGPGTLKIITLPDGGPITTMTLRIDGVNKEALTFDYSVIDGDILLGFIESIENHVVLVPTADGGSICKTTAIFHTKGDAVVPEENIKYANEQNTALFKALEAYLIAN

[13] = target: T3, European Hornbeam (Car b 1 isoform 2, MyBiosource, Cat #MBS1043940) (European Hornbeam, UniProt P38950 2-160, limits assumed); assay: SPR Biacore, 25C;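 also: binding of related allergens to purified monoclonal anti-Bet v 1 antibodies by surface plasmon resonance in HEPES-buffered saline pH 7.4, kinetics fitted to a 1:1 model with mass transport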
T3 construct: Bought reagent
T3 sequence (looked up): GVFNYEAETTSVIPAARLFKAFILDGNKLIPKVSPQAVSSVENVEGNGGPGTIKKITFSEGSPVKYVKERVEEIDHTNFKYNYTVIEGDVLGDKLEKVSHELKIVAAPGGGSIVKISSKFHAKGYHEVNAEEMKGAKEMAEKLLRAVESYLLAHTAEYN

[14] = target: T4, European Hornbeam (Car b 1 isoform 1A & 1B, MyBiosource, Cat #MBS1200018) (European Hornbeam, UniProt P38949 2-160); assay: SPR Biacore, 25C;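 also: binding of related allergens to purified monoclonal anti-Bet v 1 antibodies by surface plasmon resonance in HEPES-buffered saline pH 7.4, kinetics fitted to a 1:1 model with mass transport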
T4 construct: Bought reagent
T4 sequence (looked up): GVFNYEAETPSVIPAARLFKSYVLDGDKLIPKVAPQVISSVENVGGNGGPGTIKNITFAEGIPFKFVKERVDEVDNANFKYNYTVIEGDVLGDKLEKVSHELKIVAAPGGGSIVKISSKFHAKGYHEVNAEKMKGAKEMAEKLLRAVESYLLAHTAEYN

[15] = target: T5, Alder (Aln g 1, MyBiosource, Cat #MBS1041484) (Alder, UniProt P38948 2-160, limits assumed); assay: SPR Biacore, 25C;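 also: binding of related allergens to purified monoclonal anti-Bet v 1 antibodies by surface plasmon resonance in HEPES-buffered saline pH 7.4, kinetics fitted to a 1:1 model with mass transport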
T5 construct: Bought reagent
T5 sequence (looked up): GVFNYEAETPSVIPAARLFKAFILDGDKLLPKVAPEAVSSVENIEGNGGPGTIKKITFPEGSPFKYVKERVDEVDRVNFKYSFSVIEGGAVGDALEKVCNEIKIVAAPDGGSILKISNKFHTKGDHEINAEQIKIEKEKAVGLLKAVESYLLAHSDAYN

[16] = target: T6, Apple (Mal d 1, MyBiosource, Cat #MBS1224919) (Apple, UniProt P43211 2-159, limits assumed); assay: SPR Biacore, 25C
T6 construct: Bought reagent
T6 sequence (looked up): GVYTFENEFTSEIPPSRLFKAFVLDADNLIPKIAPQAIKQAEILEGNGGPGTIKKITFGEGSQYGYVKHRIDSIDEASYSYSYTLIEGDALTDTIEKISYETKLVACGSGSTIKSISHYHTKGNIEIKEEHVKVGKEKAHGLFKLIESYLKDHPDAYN

[17] = target: T7, natural Bet v 1 (Indoor, Cat #NA-BV1-1) (Betula verrucosa (European white birch, …, UniProt P15494 2-160)); assay: SPR Biacore, mAb captured on anti-hFc, 25C;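 also: rate constants from sensorgrams fitted to a 1:1 model with mass transport limitation, KD and t½ derived from kinetic constants, run in HBS-ET buffer at pH 7.4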
T7 construct: Bought natural protein purified from birch pollen; also called nBet v 1
T7 sequence: T1 chain with L62F

[18] = target: T7, natural Bet v 1 (Indoor, Cat #NA-BV1-1); assay: SPR Biacore, mAb captured on anti-hFc, 37C;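 also: purified anti-Bet v 1 monoclonal antibodies, HBS-ET running buffer pH 7.4, rate constants from 1:1 model fit with mass transport limitation, KD and t½ calculated from kinetic constants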
mutant Bet v 1-MMH [19] = target: T8, mutant Bet v 1-MMH (Betula verrucosa (European white birch, …)); assay: BLI Octet HTX, mutant Bet v 1-MMH captured on anti-Penta-His tips, 25C
T8 construct: also called CHO produced recombinant Bet v 1 containing a S85A mutation with a C-terminal myc-myc hexahistidine tag
T8 chain: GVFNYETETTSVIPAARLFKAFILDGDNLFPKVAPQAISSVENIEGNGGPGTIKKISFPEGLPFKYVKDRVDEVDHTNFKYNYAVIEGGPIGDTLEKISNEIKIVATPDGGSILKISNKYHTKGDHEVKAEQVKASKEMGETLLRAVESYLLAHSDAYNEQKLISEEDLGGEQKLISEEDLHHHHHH

mutant Bet v 1-MMH [20] = target: T9, mutant Bet v 1-MMH (Betula verrucosa (Betula pendula)); assay: BLI Octet, mutant Bet v 1-MMH captured on anti-Penta-His tips
T9 construct: CHO produced; also called recombinant mutant Bet v 1 with C-terminal myc-myc-hexahistidine tag
T9 chain: T8 chain

Percent Blocking (at 1 µg/mL each antibody) (natural Bet v 1 [1]): 52%
Percent Blocking (at 1 µg/mL each antibody) (natural Bet v 1 [2]): 66%
Percent Blocking (at 1 µg/mL each antibody) (natural Bet v 1 [3]): 79%
Percent Blocking (at 1 µg/mL each antibody) (natural Bet v 1 [4]): 56.4%
Percent Blocking (at 1 µg/mL each antibody) (natural Bet v 1 [5]): 38%
Percent Blocking (at 1 µg/mL each antibody) (natural Bet v 1 [6]): 82.7%
Percent Blocking (at 1 µg/mL each antibody) (natural Bet v 1 [7]): 51%
Percent Blocking (at 1 µg/mL each antibody) (natural Bet v 1 [8]): 82.9%
Percent Blocking (at 1 µg/mL each antibody) (natural Bet v 1 [9]): 81%
Percent Blocking (at 1 µg/mL each antibody) (natural Bet v 1 [10]): 49%
Percent Blocking (at 1 µg/mL each antibody) (natural Bet v 1 [11]): 74%
B1: H4H17082P2 (antibody, human IgG4 S228P, kappa, V domains shown)
VH: QVQLVQSGAEVKKPGASVKVSCKASGYTFISYNIFWVRQATGQGLDWMGWMNPFRNNAGYAQKFQGRVTVTWDTSISTAYMELSSLSSEDTAIYYCAREHGSSWGFFDYWGQGTLVTVSS
VL: not shown
notes: fully human, human IgG4 Fc (H4H prefix); also called MAB2; REGN5715

binding result [12]: no binding (tested: 100 nM)
binding result [13]: no binding (tested: 100 nM)
binding result [14]: no binding (tested: 100 nM)
binding result [15]: no binding (tested: 100 nM)
binding result [16]: no binding (tested: 100 nM)
100 nM natural Bet v 1 Bound (RU) [17]: 58 RU
Kd [17]: 3.56 nM
koff [17]: 0.000402 s⁻¹
kon [17]: 113000 M⁻¹ s⁻¹
t½ [17]: 29 min
100 nM natural Bet v 1 Bound (RU) [18]: 80 RU
Kd [18]: 5.48 nM
koff [18]: 0.00147 s⁻¹
kon [18]: 268000 M⁻¹ s⁻¹
t½ [18]: 7.9 min
B2: H4H17067P2 (antibody, human IgG4, V domains shown)
VH: EVQLVQSGAEVKKPGESLKISCSGSGYRFTNYWIAWVRQMPGKGLEWMGLIHPDDSDIRYSPSFQGQVTFSVDKSINTAYLQWSSLKASDTAMYYCTRQDGILWSHNAWFDPWGQGTLVTVSS
VL: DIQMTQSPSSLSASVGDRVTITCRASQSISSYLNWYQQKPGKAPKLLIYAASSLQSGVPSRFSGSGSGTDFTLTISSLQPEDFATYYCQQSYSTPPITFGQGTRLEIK

binding result [12]: no binding (tested: 100 nM)
binding result [14]: no binding (tested: 100 nM)
binding result [16]: no binding (tested: 100 nM)
100 nM natural Bet v 1 Bound (RU) [17]: 71 RU
Kd [17]: 1 nM
koff [17]: 0.000329 s⁻¹
kon [17]: 329000 M⁻¹ s⁻¹
t½ [17]: 35 min
binding result (mutant Bet v 1-MMH [19]): no binding (tested: 50 µg/mL)
100 nM natural Bet v 1 Bound (RU) [18]: 87 RU
Kd [18]: 2.52 nM
koff [18]: 0.00122 s⁻¹
kon [18]: 485000 M⁻¹ s⁻¹
t½ [18]: 9.5 min
B3: H4H17001P (antibody, human IgG4, V domains shown)
VH: QVQLVESGGGLVKPGGSLRLSCAASGFTFSDYYMNWIRQAPGKGLEWISLISSSGSAIYYSDSVKGRFTISRDNARKSLYLQVNSLRAEDTAVYYCARDRGEWALGAYYYGLDVWGQGTTVTVSS
VL: DIVMTQSPLSLPVTPGEPASISCRSSQSLLHSDGYNYLDWYLQKSGQSPQLLIYLGSNRASGVPDRFSGSGSGTDFTLKISRMEAEDVGVYYCMQALQTPYTFGQGTKLEIK

binding result (mutant Bet v 1-MMH [20]): no binding (tested: 50 µg/mL)
B4: H4H17001P (antibody, human IgG4, V domains shown)
VH: B3 VH
VL: B3 VL
notes: human IgG4 Fc (H4H prefix)

binding result [12]: no binding (tested: 100 nM)
binding result [15]: no binding (tested: 100 nM)
binding result [16]: no binding (tested: 100 nM)
100 nM natural Bet v 1 Bound (RU) [17]: 71 RU
Kd [17]: 1.4 nM
koff [17]: 0.00023 s⁻¹
kon [17]: 164000 M⁻¹ s⁻¹
t½ [17]: 50 min
binding result (mutant Bet v 1-MMH [19]): no binding (tested: 50 µg/mL)
100 nM natural Bet v 1 Bound (RU) [18]: 88 RU
Kd [18]: 4.89 nM
koff [18]: 0.00127 s⁻¹
kon [18]: 260000 M⁻¹ s⁻¹
t½ [18]: 9.1 min
B5: H4H16943P (antibody, human IgG4, V domains shown)
VH: EVQLVESGGGLVQPGGSLRLSCTASGFMSSMYWMSWVRQAPGKGLEWVSNIKQDGTEKNYVESVKGRFTISRDNAKNSLYLQINSLRGEDTAVYYCARDLYSSSSGYYYYGLDVWGQGTTVTVSS
VL: DIVMTQSPLSLPVTPGEPASISCRSSQSLLHSNKYNYLDWYLQKPGQSPQLLIYLSSNRASGVPDRFSGSGSGTEFTLKISRVEAEDVGIYYCMQALHTPLTFGGGTKVEIK

binding result (mutant Bet v 1-MMH [20]): no binding (tested: 50 µg/mL)
B6: H4H16943P (antibody, human IgG4, V domains shown)
VH: B5 VH
VL: B5 VL
notes: human IgG4 Fc (H4H prefix)

binding result [12]: no binding (tested: 100 nM)
binding result [13]: no binding (tested: 100 nM)
binding result [14]: no binding (tested: 100 nM)
binding result [15]: no binding (tested: 100 nM)
binding result [16]: no binding (tested: 100 nM)
100 nM natural Bet v 1 Bound (RU) [17]: 69 RU
Kd [17]: 1.22 nM
koff [17]: 0.000149 s⁻¹
kon [17]: 122000 M⁻¹ s⁻¹
t½ [17]: 78 min
100 nM natural Bet v 1 Bound (RU) [18]: 90 RU
Kd [18]: 1.86 nM
koff [18]: 0.000441 s⁻¹
kon [18]: 237000 M⁻¹ s⁻¹
t½ [18]: 26 min
B7: H4H17045P2 (antibody, human IgG4, V domains shown)
VH: EVQLVESGGGLVQPGVSLRLSCVASGFTFSNYDITWIRQIPGKGLEWVSRISGSGGSTYFADSVKGRFIISRDNSKNTVYMQMNSLRAEDSAVYYCARRDSVLFSMNSWLDPWGQGTLVTVSS
VL: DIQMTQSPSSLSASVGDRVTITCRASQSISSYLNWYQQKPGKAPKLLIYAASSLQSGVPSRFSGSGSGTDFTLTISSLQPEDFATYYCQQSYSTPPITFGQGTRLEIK
